# T1: Human CD3eg linker (human)
# T1 construct: Single chain: epsilon and gamma subunits of human CD3 joined by a 29-mer linker, Flag-tag at the C-terminus; also called recombinant human CD3
# T1 chain: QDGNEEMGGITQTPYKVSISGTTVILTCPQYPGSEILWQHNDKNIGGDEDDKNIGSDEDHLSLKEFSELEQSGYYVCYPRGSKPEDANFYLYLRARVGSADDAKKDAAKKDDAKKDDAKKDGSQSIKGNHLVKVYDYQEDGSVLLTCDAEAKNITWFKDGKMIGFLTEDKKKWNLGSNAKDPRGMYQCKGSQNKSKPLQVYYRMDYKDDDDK
# Target: T1, Human CD3eg linker
# Assay: Biacore SPR, vs template H183/L072
row,fold change of affinity,Binder
1,1.2 fold,"H183/L072 VH T28S (antibody, name in Kabat numbering, V domains shown) VH: QVQLVESGGGLVQPGRSLRLSCAASGFSFSNAWMHWVRQAPGKGLEWVAQIKDKGNAYAAYYAPSVKGRFTISRDDSKNSIYLQMNSLKTEDTAVYYCHYVHYASASTVLPAFGVDAWGQGTTVTVSS VL: DIVMTQSPLSLPVTPGEPASISCQASQELVHMNRNTYLHWYQQKPGQAPRLLIYKVSNRFPGVPDRFSGSGSGTDFTLKISRVEAEDVGVYYCAQGTSVPFTFGQGTKLEIK"
2,1 fold,"H183/L072 VH T28V (antibody, name in Kabat numbering, V domains shown) VH: QVQLVESGGGLVQPGRSLRLSCAASGFVFSNAWMHWVRQAPGKGLEWVAQIKDKGNAYAAYYAPSVKGRFTISRDDSKNSIYLQMNSLKTEDTAVYYCHYVHYASASTVLPAFGVDAWGQGTTVTVSS VL: DIVMTQSPLSLPVTPGEPASISCQASQELVHMNRNTYLHWYQQKPGQAPRLLIYKVSNRFPGVPDRFSGSGSGTDFTLKISRVEAEDVGVYYCAQGTSVPFTFGQGTKLEIK"
3,0.9 fold,"H183/L072 VH T28W (antibody, name in Kabat numbering, V domains shown) VH: QVQLVESGGGLVQPGRSLRLSCAASGFWFSNAWMHWVRQAPGKGLEWVAQIKDKGNAYAAYYAPSVKGRFTISRDDSKNSIYLQMNSLKTEDTAVYYCHYVHYASASTVLPAFGVDAWGQGTTVTVSS VL: DIVMTQSPLSLPVTPGEPASISCQASQELVHMNRNTYLHWYQQKPGQAPRLLIYKVSNRFPGVPDRFSGSGSGTDFTLKISRVEAEDVGVYYCAQGTSVPFTFGQGTKLEIK"

# The remaining lines, values behind:
row,Binder,fold change of affinity
1,"H183/L072 VH T28M (antibody, name in Kabat numbering, V domains shown) VH: QVQLVESGGGLVQPGRSLRLSCAASGFMFSNAWMHWVRQAPGKGLEWVAQIKDKGNAYAAYYAPSVKGRFTISRDDSKNSIYLQMNSLKTEDTAVYYCHYVHYASASTVLPAFGVDAWGQGTTVTVSS VL: DIVMTQSPLSLPVTPGEPASISCQASQELVHMNRNTYLHWYQQKPGQAPRLLIYKVSNRFPGVPDRFSGSGSGTDFTLKISRVEAEDVGVYYCAQGTSVPFTFGQGTKLEIK",0.8 fold
2,"H183/L072 VH T28N (antibody, name in Kabat numbering, V domains shown) VH: QVQLVESGGGLVQPGRSLRLSCAASGFNFSNAWMHWVRQAPGKGLEWVAQIKDKGNAYAAYYAPSVKGRFTISRDDSKNSIYLQMNSLKTEDTAVYYCHYVHYASASTVLPAFGVDAWGQGTTVTVSS VL: DIVMTQSPLSLPVTPGEPASISCQASQELVHMNRNTYLHWYQQKPGQAPRLLIYKVSNRFPGVPDRFSGSGSGTDFTLKISRVEAEDVGVYYCAQGTSVPFTFGQGTKLEIK",0.8 fold
3,"H183/L072 VH T28P (antibody, name in Kabat numbering, V domains shown) VH: QVQLVESGGGLVQPGRSLRLSCAASGFPFSNAWMHWVRQAPGKGLEWVAQIKDKGNAYAAYYAPSVKGRFTISRDDSKNSIYLQMNSLKTEDTAVYYCHYVHYASASTVLPAFGVDAWGQGTTVTVSS VL: DIVMTQSPLSLPVTPGEPASISCQASQELVHMNRNTYLHWYQQKPGQAPRLLIYKVSNRFPGVPDRFSGSGSGTDFTLKISRVEAEDVGVYYCAQGTSVPFTFGQGTKLEIK",0.7 fold
4,"H183/L072 VH T28Q (antibody, name in Kabat numbering, V domains shown) VH: QVQLVESGGGLVQPGRSLRLSCAASGFQFSNAWMHWVRQAPGKGLEWVAQIKDKGNAYAAYYAPSVKGRFTISRDDSKNSIYLQMNSLKTEDTAVYYCHYVHYASASTVLPAFGVDAWGQGTTVTVSS VL: DIVMTQSPLSLPVTPGEPASISCQASQELVHMNRNTYLHWYQQKPGQAPRLLIYKVSNRFPGVPDRFSGSGSGTDFTLKISRVEAEDVGVYYCAQGTSVPFTFGQGTKLEIK",0 fold
5,"H183/L072 VH T28R (antibody, name in Kabat numbering, V domains shown) VH: QVQLVESGGGLVQPGRSLRLSCAASGFRFSNAWMHWVRQAPGKGLEWVAQIKDKGNAYAAYYAPSVKGRFTISRDDSKNSIYLQMNSLKTEDTAVYYCHYVHYASASTVLPAFGVDAWGQGTTVTVSS VL: DIVMTQSPLSLPVTPGEPASISCQASQELVHMNRNTYLHWYQQKPGQAPRLLIYKVSNRFPGVPDRFSGSGSGTDFTLKISRVEAEDVGVYYCAQGTSVPFTFGQGTKLEIK",2.9 fold

# — patent US20210388087A1 (Chugai, published 2021)
